Data published in paper PMC10130389, “Growth hormone secretagogues modulate inflammation and fibrosis in mdx mouse model of Duchenne muscular dystrophy” (Frontiers in Immunology, 2023).
No end group written: not given here.

How the values were obtained:
[1] = test system: H2K-2B4 cells; assay: CCK-8 cell viability, WT H2K-2B4 cells; assay type: cell-based, murine; conditions: at 1 mM, proliferation and differentiation conditions, CCK-8, triplicate
Procedure: (§1) Wild-type (WT) H2K-2B4 and dystrophic H2K-SF1 cell lines were cultured and used for all the experiments ([48]). Cells were seeded in 96-well cultures (approximately 4–4.5 × 10^3 cells per well) and sixteen hours after seeding were treated with EP80317, JMV2894 (both in the concentration range 100μM to 1mM) or ghrelin (as control in the concentration range 10nM to 100 μM). Cell viability was then evaluated at different time points following the exposure (16-96 h) by using the Cell Counting Kit-8 (CCK-8,96992 Sigma-Aldrich), according to the instruction. The optical density of each well was determined using a microplate reader set to 450 nm (Victor 3V, Perkin Elmer, Waltham, MA, USA). Cell viability was expressed in percentage vs. control properly corrected for blank values.

[2] = test system: H2K-SF1 cells; assay: CCK-8 cell viability, dystrophic H2K-SF1 cells; assay type: cell-based, murine; conditions: at 1 mM, proliferation and differentiation conditions, CCK-8, triplicate
Procedure: as §1

## ghrelin: 28 amino acid hormone, used as control in the cell viability assay (GSSFLSPEHQRVQQRKESKKPPAKLQPR; ends and bridges not checked; UniProt Q9UBU3 24-51, looked up)
[1]
  toxic effect on 2B4 cells: no toxic effect
[2]
  toxic effect on SF1 cells: no toxic effect
